Assay results taken from patent publication US11306156.

How the values were obtained:
[1] = target: D3H44 light chain Q124R_Q160K_T178R with N-terminal HA or FLAG tag; test: LCCA (SPR tag readout), L1:L2 DNA 1:3, normalized to 1:1; competing light chain m13
[2] = target: D3H44 light chain Q124R_T178K with N-terminal HA or FLAG tag; test: as above
[3] = target: D3H44 light chain Q124K_T178R with N-terminal HA or FLAG tag; test: as above
[4] = target: D3H44 light chain Q124R_T178R with N-terminal HA or FLAG tag; test: as above
[5] = target: D3H44 light chain Q124E_T180E with N-terminal HA or FLAG tag; test: LCCA (SPR tag readout), L1:L2 DNA 1:3, normalized to 1:1; competing light chain m15
[6] = target: D3H44 light chain Q124E_T180E with N-terminal HA or FLAG tag; test: LCCA (SPR tag readout), L1:L2 DNA 1:3, normalized to 1:1; competing light chain m14
[7] = target: D3H44 light chain Q124E_Q160E_T180E with N-terminal HA or FLAG tag; test: LCCA (SPR tag readout), L1:L2 DNA 1:9, normalized to 1:1; competing light chain m12
[8] = target: D3H44 light chain Q124E_Q160E_T180E with N-terminal HA or FLAG tag; test: LCCA (SPR tag readout), L1:L2 DNA 1:9, normalized to 1:1; competing light chain m19
[9] = target: D3H44 light chain Q124R_T178R with N-terminal HA or FLAG tag; test: LCCA (SPR tag readout), L1:L2 DNA 1:3, normalized to 1:1; competing light chain m16
[10] = target: D3H44 light chain Q124R_T178R with N-terminal HA or FLAG tag; test: LCCA (SPR tag readout), L1:L2 DNA 1:9, normalized to 1:1; competing light chain m16
[11] = target: D3H44 light chain Q124E_Q160E_T180E with N-terminal HA or FLAG tag; test: LCCA (SPR tag readout), L1:L2 DNA 1:3, normalized to 1:1; competing light chain m19
[12] = target: D3H44 light chain Q124R_T178R with N-terminal HA or FLAG tag; test: LCCA (SPR tag readout), L1:L2 DNA 1:3, normalized to 1:1; competing light chain m11
[13] = target: D3H44 light chain Q124R_T178R with N-terminal HA or FLAG tag; test: LCCA (SPR tag readout), L1:L2 DNA 1:9, normalized to 1:1; competing light chain m11
[14] = target: D3H44 light chain Q124R_T178R with N-terminal HA or FLAG tag; test: LCCA (SPR tag readout), L1:L2 DNA 1:9, normalized to 1:1; competing light chain m13
[15] = target: D3H44 light chain T178R with N-terminal HA or FLAG tag; test: LCCA (SPR tag readout), L1:L2 DNA 1:3, normalized to 1:1; competing light chain m18
[16] = target: D3H44 light chain Q124K_T178R with N-terminal HA or FLAG tag; test: as above
[17] = target: D3H44 light chain Q124E_Q160E_T180E with N-terminal HA or FLAG tag; test: LCCA (SPR tag readout), L1:L2 DNA 1:3, normalized to 1:1; competing light chain m12
[18] = target: D3H44 light chain Q124E_T180E with N-terminal HA or FLAG tag; test: as above
[19] = target: D3H44 light chain Q124R_T178R with N-terminal HA or FLAG tag; test: LCCA (SPR tag readout), L1:L2 DNA 1:9, normalized to 1:1; competing light chain m10
[20] = target: D3H44 light chain T178R with N-terminal HA or FLAG tag; test: LCCA (SPR tag readout), L1:L2 DNA 1:9, normalized to 1:1; competing light chain m18
[21] = target: D3H44 light chain Q124K_T178R with N-terminal HA or FLAG tag; test: as above
[22] = target: D3H44 light chain Q124R_T178R with N-terminal HA or FLAG tag; test: LCCA (SPR tag readout), L1:L2 DNA 1:3, normalized to 1:1; competing light chain m10
[23] = target: D3H44 light chain Q124E_T178E with N-terminal HA or FLAG tag; test: LCCA (SPR tag readout), L1:L2 DNA 1:9, normalized to 1:1; competing light chain m9
[24] = target: D3H44 light chain Q124E_V133D with N-terminal HA or FLAG tag; test: as above
[25] = target: D3H44 light chain Q124E_T178E_T180E with N-terminal HA or FLAG tag; test: as above
[26] = target: D3H44 light chain Q124E_T180E with N-terminal HA or FLAG tag; test: as above
[27] = target: D3H44 light chain Q124E_T178E with N-terminal HA or FLAG tag; test: LCCA (SPR tag readout), L1:L2 DNA 1:3, normalized to 1:1; competing light chain m9
[28] = target: D3H44 light chain Q124E_V133D with N-terminal HA or FLAG tag; test: as above
[29] = target: D3H44 light chain Q124E_T178E_T180E with N-terminal HA or FLAG tag; test: as above
[30] = target: D3H44 light chain Q124E_T180E with N-terminal HA or FLAG tag; test: as above
[31] = target: D3H44 light chain T178R with N-terminal HA or FLAG tag; test: LCCA (SPR tag readout), L1:L2 DNA 1:3, normalized to 1:1; competing light chain m13
[32] = target: D3H44 light chain Q124E_Q160E_T180E with N-terminal HA or FLAG tag; test: LCCA (SPR tag readout), L1:L2 DNA 1:3, normalized to 1:1; competing light chain m15
[33] = target: D3H44 light chain Q124E_Q160E_T180E with N-terminal HA or FLAG tag; test: LCCA (SPR tag readout), L1:L2 DNA 1:9, normalized to 1:1; competing light chain m15
[34] = target: D3H44 light chain Q124E_T180E with N-terminal HA or FLAG tag; test: LCCA (SPR tag readout), L1:L2 DNA 1:3, normalized to 1:1; competing light chain m19
[35] = target: D3H44 light chain Q124R_T178K with N-terminal HA or FLAG tag; test: LCCA (SPR tag readout), L1:L2 DNA 1:3, normalized to 1:1; competing light chain m18
[36] = target: D3H44 light chain Q124R_T178R with N-terminal HA or FLAG tag; test: as above
[37] = target: D3H44 light chain Q124R_T178K with N-terminal HA or FLAG tag; test: LCCA (SPR tag readout), L1:L2 DNA 1:9, normalized to 1:1; competing light chain m18
[38] = target: D3H44 light chain Q124R_T178R with N-terminal HA or FLAG tag; test: as above
[39] = target: D3H44 light chain Q124E_Q160E_T180E with N-terminal HA or FLAG tag; test: LCCA (SPR tag readout), L1:L2 DNA 1:9, normalized to 1:1; competing light chain m9
[40] = target: D3H44 light chain Q124E_Q160E_T180E with N-terminal HA or FLAG tag; test: LCCA (SPR tag readout), L1:L2 DNA 1:3, normalized to 1:1; competing light chain m9

D3H44 Fab heavy chain L143E_K145T_Q179E with C-terminal ABD2-His6 tag
H1L1:H1L2 normalized median ratio [1]: 73%
H1L1:H1L2 normalized median scalar value ln(r1/f1) [1]: 1
H1L1:H1L2 normalized median ratio [2]: 84%
H1L1:H1L2 normalized median scalar value ln(r1/f1) [2]: 1.69
H1L1:H1L2 normalized median ratio [3]: 70%
H1L1:H1L2 normalized median scalar value ln(r1/f1) [3]: 0.84
H1L1:H1L2 normalized median ratio [4]: 85%
H1L1:H1L2 normalized median scalar value ln(r1/f1) [4]: 1.75
H1L1:H1L2 normalized median ratio [5]: 16%
H1L1:H1L2 normalized median ratio [6]: 27%
H1L1:H1L2 normalized median ratio [7]: 12%
H1L1:H1L2 normalized median ratio [8]: 25%
H1L1:H1L2 normalized median ratio [9]: 92%
H1L1:H1L2 normalized median scalar value ln(r1/f1) [9]: 2.41
H1L1:H1L2 normalized median ratio [10]: 88%
H1L1:H1L2 normalized median scalar value ln(r1/f1) [10]: 1.96
H1L1:H1L2 normalized median ratio [11]: 11%
H1L1:H1L2 normalized median ratio [12]: 86%
H1L1:H1L2 normalized median scalar value ln(r1/f1) [12]: 1.83
H1L1:H1L2 normalized median ratio [13]: 85%
H1L1:H1L2 normalized median scalar value ln(r1/f1) [13]: 1.77
H1L1:H1L2 normalized median ratio [14]: 83%
H1L1:H1L2 normalized median scalar value ln(r1/f1) [14]: 1.59
H1L1:H1L2 normalized median ratio [15]: 89%
H1L1:H1L2 normalized median scalar value ln(r1/f1) [15]: 2.14
H1L1:H1L2 normalized median ratio [16]: 88%
H1L1:H1L2 normalized median scalar value ln(r1/f1) [16]: 2
H1L1:H1L2 normalized median ratio [17]: 12%
H1L1:H1L2 normalized median ratio [18]: 30%
H1L1:H1L2 normalized median ratio [19]: 92%
H1L1:H1L2 normalized median scalar value ln(r1/f1) [19]: 2.45
H1L1:H1L2 normalized median ratio [20]: 75%
H1L1:H1L2 normalized median scalar value ln(r1/f1) [20]: 1.1
H1L1:H1L2 normalized median ratio [21]: 88%
H1L1:H1L2 normalized median scalar value ln(r1/f1) [21]: 2.02
H1L1:H1L2 normalized median ratio [22]: 92%
H1L1:H1L2 normalized median scalar value ln(r1/f1) [22]: 2.46
H1L1:H1L2 normalized median ratio [23]: 15%
H1L1:H1L2 normalized median ratio [24]: 12%
H1L1:H1L2 normalized median ratio [25]: 8%
H1L1:H1L2 normalized median ratio [26]: 17%
H1L1:H1L2 normalized median ratio [27]: 14%
H1L1:H1L2 normalized median ratio [28]: 8%
H1L1:H1L2 normalized median ratio [29]: 8%
H1L1:H1L2 normalized median ratio [30]: 15%

D3H44 Fab heavy chain S186K with C-terminal ABD2-His6 tag
H2L2:H2L1 normalized median ratio [1]: 3%
H2L2:H2L1 normalized median ratio [31]: 4%
H2L2:H2L1 normalized median ratio [3]: 2%
H2L2:H2L1 normalized median ratio [4]: 6%
H2L2:H2L1 normalized median ratio [32]: 92%
H2L2:H2L1 normalized median ratio [6]: 97%
H2L2:H2L1 normalized median ratio [8]: 87%
H2L2:H2L1 normalized median ratio [33]: 89%
H2L2:H2L1 normalized median ratio [11]: 91%
H2L2:H2L1 normalized median ratio [34]: 96%
H2L2:H2L1 normalized median ratio [12]: 4%
H2L2:H2L1 normalized median ratio [13]: 4%
H2L2:H2L1 normalized median ratio [14]: 11%
H2L2:H2L1 normalized median ratio [15]: 9%
H2L2:H2L1 normalized median ratio [35]: 8%
H2L2:H2L1 normalized median ratio [36]: 6%
H2L2:H2L1 normalized median ratio [18]: 98%
H2L2:H2L1 normalized median ratio [20]: 13%
H2L2:H2L1 normalized median ratio [37]: 11%
H2L2:H2L1 normalized median ratio [38]: 6%
H2L2:H2L1 normalized median ratio [23]: 96%
H2L2:H2L1 normalized median ratio [39]: 94%
H2L2:H2L1 normalized median ratio [26]: 89%
H2L2:H2L1 normalized median ratio [27]: 96%
H2L2:H2L1 normalized median ratio [40]: 94%
H2L2:H2L1 normalized median ratio [30]: 94%
